Measured values reported in article PMC5322562, “Dynamic regulation of GDP binding to G proteins revealed by magnetic field-dependent NMR relaxation analyses” (Nature Communications, 2017).

Biological target: human Gαi3 (residues 1–354), GDP-bound form (human, UniProt P08754 1-354)
Test: cell-based or functional assay

human Gαi3 (residues 1–354), GDP-bound form, sequence (P08754 whole entry, the tested form may be a part): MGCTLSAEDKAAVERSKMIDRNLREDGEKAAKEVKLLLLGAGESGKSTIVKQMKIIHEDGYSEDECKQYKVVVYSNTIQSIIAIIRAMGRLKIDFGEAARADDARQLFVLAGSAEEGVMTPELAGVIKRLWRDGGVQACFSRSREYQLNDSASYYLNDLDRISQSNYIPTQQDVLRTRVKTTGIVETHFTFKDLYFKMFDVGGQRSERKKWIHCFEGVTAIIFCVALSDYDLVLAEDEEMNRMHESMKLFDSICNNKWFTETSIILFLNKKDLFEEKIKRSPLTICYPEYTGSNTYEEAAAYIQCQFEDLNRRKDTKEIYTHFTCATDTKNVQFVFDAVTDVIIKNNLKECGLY

## GPLGSDIEGLVELLNRVQSSGAHDQRGLLRKEDLVLPEFLQ [GoLoco14 peptide (residues 496–531 of rat RGS14)]
  IC50 of the inhibition of 3H-GDP dissociation from Gα-GDP (bound 3H-GDP after a 10 min incubation with 100 nM to 10 μM GoLoco14; 30 °C): 620 nM
